T1: mouse VEGF (mouse, UniProt Q00731-2 27-190, limits assumed)
T1 construct: In indirect ELISA (source not described) and in mouse 3LL tumor sections
T1 sequence (looked up): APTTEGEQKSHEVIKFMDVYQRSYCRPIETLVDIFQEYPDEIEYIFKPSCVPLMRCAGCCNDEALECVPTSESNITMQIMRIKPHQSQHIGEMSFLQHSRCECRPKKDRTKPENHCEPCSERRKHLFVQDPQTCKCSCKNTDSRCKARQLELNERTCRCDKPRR

B1: monoclonal antibody 2C3 (ATCC PTA 1595) (antibody, V domains shown)
VH: QVQLQESGPELVKPGASVKMSCKASGYTFTSYVFHWVKQKPGQGLEWIGYINPYNDVTKYNEKFKGKATLTSDKSSSTAYMELSSLTSEDSAVYYCASYYGSSYGYYAMDDWGQGTTVTVSS
VL: DIQLTQSPASLSVSAGEKVTMSCKSSQSLLNSGNQKNYLAWYQQKPGQPPKLLIHGASTRESGVPDRFTGSGSGTDFTLTISSVQAEDLAVYYCQNDYSYPLTFGAGTKLELKR
notes: also called 2C3 IgG
B2: 2C3-GUS conjugate (other)
VH: KLQVQLQESGPELVKPGASVKMSCKASGYTFTSYVFHWVKQKPGQGLEWIGYINPYNDVTKYNEKFKGKATLTSDKSSSTAYMELSSLTSEDSAVYYCASYYGSSYGYYAMDDWGQGTTVTVSSGGG
VL: DIQLTQSPASLSVSAGEKVTMSCKSSQSLLNSGNQKNYLAWYQQKPGQPPKLLIHGASTRESGVPDRFTGSGSGTDFTLTISSVQAEDLAVYYCQNDYSYPLTFGAGTKLELKRL
chain: MLRPVETPTREIKKLDGLWAFSLDRENCGIDQRWWESALQESRAIAVPGSFNDQFADADIRNYAGNVWYQREVFIPKGWAGQRIVLRFDAVTHYGKVWVNNQEVMEHQGGYTPFEADVTPYVIAGKSVRITVCVNNELNWQTIPPGMVITDENGKKKQSYFHDFFNYAGIHRSVMLYTTPNTWVDDITVVTHVAQDCNHASVDWQVVANGDVSVELRDADQQVVATGQGTSGTLQVVNPHLWQPGEGYLYELCVTAKSQTECDIYPLRVGIRSVAVKGEQFLINHKPFYFTGFGRHEDADLRGKGFDNVLMVHDHALMDWIGANSYRTSHYPYAEEMLDWADEHGIVVIDETAAVGFNLSLGIGFEAGNKPKELYSEEAVNGETQQAHLQAIKELIARDKNHPSVVMWSIANEPDTRPQGAREYFAPLAEATRKLDPTRPITCVNVMFCDAHTDTISDLFDVLCLNRYYGWYVQSGDLETAEKVLEKELLAWQEKLHQPIIITEYGVDTLAGLHSMYTDMWSEEYQCAWLDMYHRVFDRVSAVVGEQVWNFADFATSQGILRVGGNKKGIFTRDRKPKSAAFLLQKRWTGMNFGEKPQQGGKQ
modifications: SATA-modified, deacetylated; SMCC-modified IgG, linked by thioether to SATA-modified GUS
notes: Chemical conjugate of 2C3 IgG (mouse IgG2a,k) and 6-His GUS; GUS runs as a tetramer of about 300 kDa on gel filtration; not shown: N-terminal 6x histidine tag encoded by vector H6pQE60

Experiments:
mouse VEGF = biological target: T1, mouse VEGF; assay: indirect ELISA
[1] = biological target: T2, recombinant human VEGF165 (human, UniProt P15692 27-191); assay: printed as 'Affinity'; estimated by ELISA and surface plasmon resonance analysis
T2 construct: mature; Secreted VEGF is described as an obligate dimer; also called free VEGF; VEGF-biotin

[2] = biological target: T2, recombinant human VEGF165; assay: capture ELISA: biotinylated VEGF titrated onto wells coated with the antibody, peroxidase-avidin; concentration giving 50% maximal binding
VEGF:sFlk-1 complex = biological target: T3, VEGF:sFlk-1 complex (human; mouse, UniProt P15692 27-191; P35918 20-762, limits assumed, biotinylated); assay: capture ELISA: biotinylated sFlk-1 complexed with VEGF titrated onto wells coated with the antibody; concentration giving 50% maximal binding
T3 construct: mature;extracellular domain; also called VEGF:receptor complex
T3 sequence (P35918 20-762 limits assumed, one chain of several): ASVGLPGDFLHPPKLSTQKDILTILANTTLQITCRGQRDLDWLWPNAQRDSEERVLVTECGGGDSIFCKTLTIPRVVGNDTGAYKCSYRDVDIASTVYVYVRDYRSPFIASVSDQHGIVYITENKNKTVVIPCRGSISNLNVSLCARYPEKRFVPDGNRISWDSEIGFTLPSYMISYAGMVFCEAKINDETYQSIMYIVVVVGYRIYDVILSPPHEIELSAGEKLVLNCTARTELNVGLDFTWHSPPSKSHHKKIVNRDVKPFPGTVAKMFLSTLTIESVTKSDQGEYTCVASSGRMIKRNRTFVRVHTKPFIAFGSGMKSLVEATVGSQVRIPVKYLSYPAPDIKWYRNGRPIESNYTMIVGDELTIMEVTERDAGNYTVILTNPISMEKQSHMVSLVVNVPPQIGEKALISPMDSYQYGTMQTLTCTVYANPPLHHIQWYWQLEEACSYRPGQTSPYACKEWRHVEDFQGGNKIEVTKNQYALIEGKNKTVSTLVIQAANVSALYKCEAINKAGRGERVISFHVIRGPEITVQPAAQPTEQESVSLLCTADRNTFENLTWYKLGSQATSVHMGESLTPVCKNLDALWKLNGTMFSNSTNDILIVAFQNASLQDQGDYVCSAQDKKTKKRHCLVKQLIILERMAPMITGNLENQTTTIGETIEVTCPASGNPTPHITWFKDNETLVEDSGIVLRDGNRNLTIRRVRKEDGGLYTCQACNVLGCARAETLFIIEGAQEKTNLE

[3] = biological target: T2, recombinant human VEGF165; assay: ELISA on VEGF coated wells, HRP-labelled anti-mouse IgG and OPD

Row | Binder | binding result (mouse VEGF) | Kd [1] | EC50 [2] | EC50 (VEGF:sFlk-1 complex) | EC50 [3]
1 | B1 | no binding | 1 nM | 1 nM | 150 nM | –
2 | B2 | – | – | – | – | 0.1 nM

— US20020119153A1 (University of Texas, published 2002)
